Source: patent publication CN117007808A

Target: 融合蛋白gD-CD2v (猪伪狂犬病病毒 PRV HN1201; 非洲猪瘟病毒 ASFV SY18)

B1: 非洲猪瘟病毒CD2v蛋白单克隆抗体5G8 (antibody, V domains shown)
VH: YDHDYAKLGTELGSTSNGRQCAGIALTSRMKLWLNWVKQSHGKSLEWIGVIDPNNGGTTYNQKFKGKATLTVDKSSSTAYMEVRSLTSEYSAVYYCARYGKGIGLDYWGQGTSVTVSS
VL: DVVMTQTPLSLPVSLGDQASISCRSSQSLVHRNGNTYLHWYLQKPGQSPKLLIYKVSNRFSGVPDRFSGSGSGTDFTLKISRVEAVDLGVYFCSQSTHVPWTFGGGTKLEIK
阻断率: 91 %
